Biological target: Δgpαf-BOF (recombinant nonglycosylated pro-α factor derivative labeled with BODIPY FL) (yeast)
Experiment: fluorescence polarisation; BOF anisotropy; Δgpαf-BOF (0.2 μM in buffer A: 50 mM HEPES pH 7.5, 40 mM KOAc, 5 mM MgCl2) titrated at 4°C with PDI or BiP; a separate sample for each concentration

| Substance | Kd [nM] |
| --- | --- |
| reduced protein disulfide isomerase (from UniProt P07237 18-508) (enzyme) | 30 |
| oxidized protein disulfide isomerase (from UniProt P07237 18-508) (enzyme) | 900 |

Reference: paper PMC1890003
